The DeepSol protein solubility set

experiment: soluble on expression in E. coli; label from the status in PepcDB or PDB records

Row | Sequence | soluble on expression in E. coli
1 | FDVERKAAPAIAESDLRVASFNVLNYFTSVADSGNNNPTGQNRGATNHDEFLIQQAKIVSAMNKMDADIIGLMEVENNGFGDGSAVQNLVDALNAEIDDADDHYTYVEIADKDKYQEEYFGSDAIMVAILYRAKVVTPKEAAKVIFTPEQHIAENTITRKDGAESNPAYDKYQRHSLLQTFTVQESGEDLSIVVNHFKSKGSECIEEWIAGVEDSEPADLQGNCNNFRVSAAHAVGEALKDVKGDVLLMGDLNAYGMEDPLLTLTDYSKEKYGRDIYTAGYTTINGGELQVEQTQIKQGYGLNNLNTLLHGTDTFSYTYSGELGNLDHALASNSLAQKVVAIEDWHINSLESNLFEYGSKYTGDMPKYKDAFSASDHDPVIIAIDLPDTDIDLP | not soluble
2 | FGQYLAIRRTDALLRQQLDTLTIDTLSELEGKLPVKSNSLVIAYIRRVLESKDRPAHVQRLLADFEITADKDLAISKTLTKMGP | not soluble
3 | FLLEIGLEEMPAKYVTSSVLQLEKRVTDWLKDNQIEFKEIKTYSTPRRLTVLVEEMAEEQANRVEEAKGPAKKIALDDEGNWSKAALGFAKSQKVAPEDLTFREIKGVEYIYIKKEVIGEKTTALLPSLEKVVTSMTFPVSMHWGSNDLRYIRPIKWLIAMFGEEIIPFEITGVSTSNTSRGHRFLGKTATINQPSDYPHALLEQFVVVNASERKQAIVEQLRELETMENWQIREDDDLLEEVTNLVEYPTVLAGNFEKEYLELPEEVLITTMKEHQRYFPVFSQEGELLPHFVTVRNGNHENLDTVARGNEKVLRARLSDADFFYQEDLKITIDEAVAKLQNIVFHEKLGTLTEKMERVQKVALMLADYLNWQEEDKQDIIRLTNIYKFDLVTNIVGEFPELQGLMGEKYALLQGEKPAIATAIREHYLPSSAEGVLPQTDLGSLIAIADKLETLIGFFCVNIVPTGSADPFGLRRSAFGAMRIIQANGWDIPMLEVISRIVDMERAEGATELPSADVKKEVQTFLKNRLRVILQGHHIRHDIIDAVIGGDPNV | not soluble
4 | FPELMPLRTQWTTIRDEALALQRIQKIRAAEGHTDAGFNSFFRRGWKRFYLKWYGTTHPSAIALCPKTTALLKNIPAIKAAMFAELPPGGDLRPHRDPFAGSMRLHLGLATPNHTSCFIDVDGQRYSWHDGEWVMFDETYIHYARNDTEHNRIILFCDIERPMRWRWAQALNRFVAKHLLAAGTSPN | not soluble
5 | FSPLSSQSSACCFAYIARPLPRAHIKEYFYTSGKCSNPAVVFVTRKNRQVCANPEKKWVREYINSLEMS | soluble
6 | FTLRLNSTEMPMSDLIEVELLTGKQLLLVEPNMQAASVTQQILSQEGILVTYRSSLPENEEHYDYVLLNLAANQTYDEQSVAAWIEQAKRMAPSVIMGTPSTELALADQIMTEHQIQCLTKPLSRRKLLQS | not soluble
7 | FVSFKHKYKVTSINEIAKDTFEITGTSLKNELKYKAGQFAFIKIPEKKSFFPSHPFTMSNSNKSNEIQFSIKVLGDHTKALKENLKVGDTLSVSGPHGKFNYENGLKHQIWIAGGIGITPFRSFWQAELPSDYTVDLFYTYNNENEGAYINELNSINKNSNLNIHSIDSSKNGFLGLEDLEKHIDKNLEYSVFFCGPKPMREKLRRDFEKVNFKIKDMNYEHFHF | not soluble
8 | GAADHVKGDGKLTSKKISVADYNEIKVDGVIDFNYEQSDDPSTVEVTVDQNLHPYVNIEVKDRVLTIAFKGAKVDHFTKFIVKTNSKWLAAAKVSGNANFMVNSPLTGDETVIKANANSLVQLKETVTVGKLDLNVSGSANMVVNHLEADKIECDIDGSGSITIKKGNAKEGDYSIVSSGDIHAFGLAVPQLSCKVTGNGLAEVHATDNLKANVVGKGNIRYKGPTAVQQRIIGKGTVEEVKE | soluble
9 | GAGAYAYKTIKEDQKRYNERVMGLGLSPEEKQRRAIASATEGGSVPQIRAPSHVPFLLIGGGTAAFAAARSIRARDPGARVLIVSEDPELPYMRPPLSKELWFSDDPNVTKTLQFRQWNGKERSIYFQPPSFYVSAQDLPNIENGGVAVLTGKKVVHLDVRGNMVKLNDGSQITFEKCLIATGGTPRSLSAIDRAGAEVKSRTTLFRKIGDFRALEKISREVKSITVIGGGFLGSELACALGRKSQASGIEVIQLFPEKGNMGKILPQYLSNWTMEKVKREGVKVMPNAIVQSVGVSGGRLLIKLKDGRKVETDHIVTAVGLEPNVELAKTGGLEIDSDFGGFRVNAELQARSNIWVAGDAACFYDIKLGRRRVEHHDHAVVSGRLAGENMTGAAKPYWHQSMFWSDLGPDVGYEAIGLVDSSLPTVGVFAKATAQDNPKSATEQSGTGIRSESETESEASEITIPPSAPAVPQVPVEGEDYGKGVIFYLRDKVVVGIVLWNVFNRMPIARKIIKDGEQHEDLNEVAKLFNIHED | soluble
10 | GAMAEEATFTANFKDTDLKSFIETVGANLNKTIIMGPGVQGAVSIRTMTPLNERQYYQLFLNLLEAQGYAVVPMENDVLKVVKSSAAKVEPLPLVGEGSDNYAGDEMVTKVVPVRNVSVRELAPILRQMIDSAGSGNVVNYDPSNVIMLTGRASVVERLTEVIQRVDHAGNRTEEVIPLDNASASEIARVLESLTKNSGENQPATLKSQIVADERTNSVIVSGDPATRDKMRRLIRRLDSE | soluble
11 | GAMAMRIYYIGVFRSGGEKALELSEVKDLSQFGFFERSSVGQFMTFFAETVASRTGAGQRQSIEEGNYIGHVYARSEGICGVLITDKEYPVRPAYTLLNKILDEYLVAHPKEEWADVTETNDALKMKQLDTYISKYQDPSQADA | soluble
12 | GAMGDIDERNIFFELFDRYKLDKFSTWSLQSKKIENDPDFYKIRDDTVRESLFEEWCGE | soluble
13 | GAMGKVGVGKKAEAVATVVAAVDQARVREPREPGLPEDSYAQQTTLEYGYKEH | soluble
14 | GAMSSKNEWRKSAIANTLLYLRLKNIYVSADDFVEEQNVYVLPKNLLKKFIEISDVKIQVAAFIYGMSAKDHPKVKEIKTVVLVPQLGHVGSVQISNIPDIGDLPDTEGLELLGWIHTQTEELKFMAASEVATHSKLFADKKRDCIDISIFSTPGSVSLSAYNLTDEGYQWGEENKDIMNVLSEGFEPTFSTHAQLLLSDRITGNFIIPSGNVWNYTFMGTAFNQEGDYNFKYGIPLEFYNEMHRPVHFLQFSE | soluble
15 | GAMSVASLPECVKNFFPTEQLEFSSSITADEKPVLHEVFQKHSCFSQCGEMIDEVSKKHPELGKRLATVLEGNKKRLDGLSPAAVEYAKKLIHMVTTTLCSLTVGKPIDDADAKRLHQEFQSLSSEDQAALRKNNPDIKF | soluble
16 | GAQVSTQKTGAHESIIHYTNINYYKDAASNSANRQDFTQDPGKFTEPVKDIMVKSLPALN | soluble
17 | GDDNSYSLGDIWIAVATVVPEGNNVYYLRLDDGDKLWPAATNYPNYQPKPNQRALVNFTILADSTQSNLGGFSHYIKVNAIHNILTKSIAKNEGAANDSIYGTDPVSIYNNNMWIGDGYLNIYFETLWGGKTAHFINLIQPDAENDPYTLEFRHNAYDDPQYTIGAGRVAFNLSSLPDTKGETVDLVVNYWTSEGKQAYKLKYNSDKTKMEDTSQGYTNDSISNITDMK | soluble
18 | GDYTTLTFRVSTHIEEAAPTSCPAEHPHTVAQGDYLIVAKSNRMSTGNDELGSILMRAFVNAIGELDRLPSHIILYNTGVLLAVEGTDTAETLAELNKKHGIPIIVCGTCADYYEVKDKLRIGTISNMYRIMQLQVATRHIIYP | not soluble
19 | GGGPFIVVAHSQGSMIAYHVLRQLKKADCDVRLFITIGSPLGIQEAQDVLGKIGSGKPLAVPECVDRWLNVAERLDPVALDSDLGNDYQPNSHGVKIENHAGLMINPEWASNPHSGTGYLSLDIVRQAVRETAGPTFSNPVGRNILMKDLVDNIEDGHREQRHPTLIQLVSDDDDATSLDEVRDRLSNLIKNVL | not soluble
20 | GGGQCYFIPNQSLKPNECQDLKGVSHPLNSVWKTKDCEECTCGQDAISCCNTAAIPTGYDTNKCQKILNKKTCTYTVVEKKDPGKTCDVTGWVL | soluble
21 | GGHTVPKPFNLSKGKRKHEEASDYVSTAEQVIAFYKRTPARYHLRSRQREMEGPSPVKMIKTKLTNPKTPLLQTKGRHRPV | soluble
22 | GGNLEEMNIDPDNATQTHPKLLLTQICMNAFKRGTDGMYATKKVIQADGESADQYYKWTRGSFGYYDNLRNVQKMGEEAERVNAPVYTALTKFFRAYYFYELTLRFGDIPYSQALKGEKEEIYTPEYDAQEDVFAGILQELREADEILANDASVIDGDIIYNGNSTQWRKLINSFRLKVLMTLSNHTTVGNINIASEFKNIATNSPLMNSLADNGQLVYLDQQGNRYPQFNAQWSGYYMDDTFIQRMRERRDPRLFIFSAQTNKGKTEGKPIDDFSSYEGGDPAAPYSDAIIKVSEGTISPINDRFRTDPIVEPTMLMGYAELQQILAEAVVRGWISGNAQTYYEKGIRASFSFYETHAKDYAGYLNENAVAQYLKEPLVDFTQASGTEEQIERIIMQKYLVTFYQGNWDSFYEQLRTGYPDFRRPAGTEIPKRWMYPQGEYDNNGTNVETAITRQFGAGNDKINQATWWQKKS | soluble
23 | GGSGSDIEAYFERIGYKNSRNKLDLETLTDILEHQIRAVPFENLNMHCGQAMELGLEAIFDHIVRRNRGGWCLQVNQLLYWALTTIGFQTTMLGGYFYIPPVNKYSTGMVHLLLQVTIDGRNYIVDAGSGSSSQMWQPLELISGKDQPQVPCIFCLTEERGIWYLDQIRREQYITNKEFLNSHLLPKKKHQKIYLFTLEPRTIEDFESMNTYLQTSPTSSFITTSFCSLQTPEGVYCLVGFILTYRKFNYKDNTDLVEFKTLTEEEVEEVLKNIFKISLGRNLVPKPGDGSLTI | soluble
24 | GHELSAIIPRSSWLAQKPMDEPLPLQLPVKYVVILHTATESSEKRAINVRLIRDMQSFHIESRGWNDIAYNFLVGCDGNIYEGRGWKTVGAHTLGYNRISLGISFIGCFMKELPTADALNMCRNLLARGVEDGHISTDYRLICHCQCNSTESPGRRLYEEIQTWPHFYNIEEEEQ | soluble
25 | GHHHHHHAIAENLYFQSTGNAGEWCLMESDPGVFTELIKGFGCRGAQVEEIWSLEPENFEKLKPVHGLIFLFKWQPGEEPAGSVVQDSRLDTIFFAKQVINNACATQAIVSVLLNCTHQDVHLGETLSEFKEFSQSFDAAMKGLALSNSDVIRQVHNSFARQQMFEFDTKTSAKEEDAFHFVSYVPVNGRLYELDGLREGPIDLGACNQDDWISAVRPVIEKRIQKYSEGEIRFNLMAIVSDRKMIYEQKIAELQRQLAEEPMDTDQGNSMLSAIQSEVAKNQMLIEEEVQKLKRYKIENIRRKHNYLPFIMELLKTLAEHQQLIPLVEKAKEKQNAKKAQETK | not soluble
26 | GHMAGNPPDPNAASTGTNPSPQAAGDISPEMMPETANIKLGYIPIVEAAPLIIAQEKGFFAKYGMTGVEVSKQANWASARDNVTIGSQGGGIDGGQWQMPMPHLITEGIITNGNKVPMYVLAQLITQGNGIAVAPMHEGKGVNLDITKAADYIKGFNKTNGRKFKAAHTFPNVNQDFWIRYWFAAGGVDPDTDIDLLAVPPAETVQGMRNGTMDAFSTGDPWPYRIVTENIGYMAGLTAQIWPYHPEEYLAIRADWVDKNPKATKALLKGIMEAQQWIDDPKNRPEVVQIVSGRNYFNVPTTILESPFKGQYTMGDGQPAIDDFQKGPLYWKDGIGNVSYPYKSHDLWFLTESIRWGFHKNAIPDLDTAQKIIDKVNREDLWREAATEAGFTADIPSSTSRGVETFFDGITFDPANPSAYLQSLAIKKV | soluble
